In series [1] the target is T1, AcsAB complex (AcsA + AcsB, cellulose synthase) (Novacetimonas hansenii, UniProt Q76KJ8).
T1 construct: acsAB fusion polypeptide with N-terminal His12 tag, processed in vivo into AcsA (83 kDa) and AcsB (93 kDa); homologous expression in G. hansenii (pUCD2CDHisAcsAB with acsCD); LFCE14 detergent, Co-NTA and size exclusion; ~180 kDa monomeric complex
Nature of the series: UDP-14C-glucose incorporation with and without c-di-GMP. The note with it: allosteric activator (30 μM); 20 mM MgCl2, 2 mM UDP-glucose, pH 7.5, 30 °C. It counts as biochemical.

Substrate in series [2]: O=c1ccn([C@@H]2O[C@H](CO[P@@](=O)(O)O[P@@](=O)(O)O[C@H]3O[C@H](CO)[C@@H](O)[C@H](O)[C@H]3O)[C@@H](O)[C@H]2O)c(=O)[nH]1
Nature of the series: UDP-14C-glucose incorporation into insoluble glucan, scintillation counting, Michaelis-Menten fit. It counts as biochemical, Novacetimonas hansenii. Particulars: Mg2+ 20 mM, 30 μM c-di-GMP, 5 mM cellobiose, 20 mM Tris-HCl pH 7.5, 100 mM NaCl, 30 °C, LFCE14 detergent-purified complex, labelled compound as tracer.

These results are taken from article PMC4877109, “Structure of the Cellulose Synthase Complex of Gluconacetobacter hansenii at 23.4 Å Resolution” (PLoS ONE, 2016).

T1 sequence (Q76KJ8 742-1550, one chain of several): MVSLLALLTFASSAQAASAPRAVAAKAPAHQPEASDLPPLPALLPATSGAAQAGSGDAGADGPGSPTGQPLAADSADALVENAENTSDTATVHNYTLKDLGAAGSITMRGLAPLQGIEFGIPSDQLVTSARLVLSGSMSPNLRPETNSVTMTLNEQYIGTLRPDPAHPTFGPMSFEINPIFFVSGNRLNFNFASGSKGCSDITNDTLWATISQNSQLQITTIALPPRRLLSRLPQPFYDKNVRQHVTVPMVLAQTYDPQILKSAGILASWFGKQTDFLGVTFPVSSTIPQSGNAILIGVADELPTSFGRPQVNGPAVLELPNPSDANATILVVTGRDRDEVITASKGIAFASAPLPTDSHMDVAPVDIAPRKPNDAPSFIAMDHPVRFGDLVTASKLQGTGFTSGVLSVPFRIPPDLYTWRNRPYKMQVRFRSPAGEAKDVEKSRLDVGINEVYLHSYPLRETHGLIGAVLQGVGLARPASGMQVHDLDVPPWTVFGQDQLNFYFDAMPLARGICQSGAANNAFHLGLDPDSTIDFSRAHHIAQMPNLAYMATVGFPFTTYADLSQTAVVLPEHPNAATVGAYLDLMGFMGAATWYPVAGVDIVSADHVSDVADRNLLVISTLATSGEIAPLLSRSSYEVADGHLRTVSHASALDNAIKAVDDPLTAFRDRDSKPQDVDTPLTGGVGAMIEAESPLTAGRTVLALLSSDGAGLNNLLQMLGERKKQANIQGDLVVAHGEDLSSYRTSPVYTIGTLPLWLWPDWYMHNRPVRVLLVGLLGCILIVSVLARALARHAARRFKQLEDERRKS

Regarding `Nc1nc2c(ncn2[C@@H]2O[C@@H]3COP(=O)(O)O[C@H]4[C@@H](O)[C@H](n5cnc6c(=O)[nH]c(N)nc65)O[C@@H]4COP(=O)(O)O[C@H]3[C@H]2O)c(=O)[nH]1` [c-di-GMP], the “UDP-14C-glucose incorporation with and without c-di-GMP” value in series [1] is recorded as “when c-di-GMP was omitted, the protein was not able to catalyze label incorporation into cellulose”.

B1: AcsAB complex (AcsA + AcsB, cellulose synthase) (Novacetimonas hansenii) (protein)
chain: MPEVRSSTQSESGMSQWMGKILSIRGAGLIIGVFGLCALIAATSVTLPPEQQLIVAFVCVVIFFIVGHKPSRRSQIFLEVLSGLVSLRYLTWRLTETLSFDTWLQGLLGTMLLVAELYALMMLFLSYFQTIAPLHRAPLPLPPNPDEWPTVDIFVPTYNEELSIVRLTVLGSLGIDWPPEKVRVHILDDGRRPEFAAFAAECGANYIARPTNEHAKAGNLNYAIGHTDGDYILIFDCDHVPTRAFLQLTMGWMVEDPKIALMQTPHHFYSPDPFQRNLSAGYRTPPEGNLFYGVVQDGNDFWDATFFCGSCAILRRTAIEQIGGFATQTVTEDAHTALKMQRLGWSTAYLRIPLAGGLATERLILHIGQRVRWARGMLQIFRIDNPLFGRGLSWGQRLCYLSAMTSFLFAVPRVIFLSSPLAFLFFGQNIIAASPLALLAYAIPHMFHAVGTASKINKGWRYSFWSEVYETTMALFLVRVTIVTLLSPSRGKFNVTDKGGLLEKGYFDLGAVYPNIILGLIMFGGLARGVYELSFGHLDQIAERAYLLNSAWAMLSLIIILAAIAVGRETQQKRNSHRIPATIPVEVANADGSIIVTGVTEDLSMGGAAVKMSWPAKLSGPTPVYIRTVLDGEELILPARIIRAGNGRGIFIWTIDNLQQEFSVIRLVFGRADAWVDWGNYKADRPLLSLMDMVLSVKGLFRSSGDIVHRSSPTKPSAGNALSDDTNNPSRKERVLKGTVK
notes: acsAB fusion polypeptide with N-terminal His12 tag, processed in vivo into AcsA (83 kDa) and AcsB (93 kDa); homologous expression in G. hansenii (pUCD2CDHisAcsAB with acsCD); LFCE14 detergent, Co-NTA and size exclusion; ~180 kDa monomeric complex
B1: in series [2], the Km is on record as 0.12 (± 0.03) mM and the kcat was 2.9 molecules per complex per second.
